Experimental data as given in patent US20080090771A1, “ABUSE-RESISTANT H[…], COMPOSITIONS AND METHODS OF USING THE SAME” (SHIRE LLC, priority 2006, published 2008).
No end group written: not given here.

Columns and labels:
[1] = Oral bioavailability of hydrocodone conjugates in rats; conditions: for bioavailability (% HC) oral AUC / bioavailability (% HC) oral Cmax: rats, relative to hydrocodone; for Oral:IN Index AUC: ratio of oral to intranasal AUC (% HC); for Oral:IN Index Cmax: ratio of oral to intranasal Cmax (% HC)
[2] = Intranasal bioavailability of hydrocodone conjugates in rats; conditions: relative to hydrocodone

| Substance | bioavailability (% HC) oral AUC [1] | bioavailability (% HC) oral Cmax [1] | Oral:IN Index AUC [1] | Oral:IN Index Cmax [1] | bioavailability (% HC) IN AUC [2] | bioavailability (% HC) IN Cmax [2] |
| --- | --- | --- | --- | --- | --- | --- |
| Asp-Asp-Asp-Asp-Ile-HC (DDDDI-hydrocodone) | 79 % HC | 110 % HC | 2.19 | 1.72 | 36 % HC | 64 % HC |
| Asp-Asp-Gly-Gly-Ile-HC (DDGGI-hydrocodone) | 82 % HC | 80 % HC | 1.71 | 1.19 | 48 % HC | 67 % HC |
| Asp-Asp-Ile-HC | 280 % HC | 238 % HC | 4.75 | 2.56 | 59 % HC | 93 % HC |
| Asp-Asp-Phe-Phe-Ile-HC (DDFFI-hydrocodone) | 115 % HC | 167 % HC | 2.05 | 2.69 | 56 % HC | 62 % HC |
| Asp-Asp-Pro-Pro-Ile-HC (DDPPI-hydrocodone) | 92 % HC | 95 % HC | 2.04 | 1.19 | 45 % HC | 80 % HC |
| Glu-Glu-Asp-Asp-Ile-HC (EEDDI-hydrocodone) | 108 % HC | 129 % HC | 2.04 | 1.59 | 53 % HC | 81 % HC |
| Glu-Glu-Gly-Gly-Ile-Hydrocodone (EEGGI-hydrocodone) [Glu-Glu-Gly-Gly-Ile-HC] | 81 % HC | 77 % HC | – | – | 50 % HC | 56 % HC |
| Glu-Glu-Gly-Gly-Phe-HC (EEGGF-hydrocodone) | 110 % HC | 112 % HC | 1.24 | 1.15 | 89 % HC | 97 % HC |
| Glu-Glu-Ile-HC | 83 % HC | 112 % HC | 1.60 | 1.90 | 52 % HC | 59 % HC |
| Glu-Glu-Phe-Phe-Ile-HC (EEFFI-hydrocodone) | 96 % HC | 129 % HC | 1.41 | 1.70 | 68 % HC | 76 % HC |
| Glu-Glu-Phe-Phe-Phe-Hydrocodone (EEFFF-hydrocodone) [Glu-Glu-Phe-Phe-Phe-HC] | 83 % HC | 89 % HC | 3.07 | 1.89 | 27 % HC | 47 % HC |
| Gly-Gly-Glu-Glu-Ile-HC (GGEEI-hydrocodone) | 96 % HC | 119 % HC | 1.45 | 1.55 | 66 % HC | 77 % HC |
| Gly-Gly-Pro-Pro-Ile-HC (GGPPI-hydrocodone) | 94 % HC | 121 % HC | 2.14 | 2.16 | 44 % HC | 56 % HC |
| Leu-Pro-Phe-HC | 106 % HC | 125 % HC | 1.28 | 1.24 | 83 % HC | 101 % HC |
| Lys-Lys-Asp-Asp-Ile-HC (KKDDI-hydrocodone) | 90 % HC | 121 % HC | 2.31 | 2.16 | 39 % HC | 56 % HC |
| Lys-Lys-Ile-HC | 80 % HC | 76 % HC | 1.18 | 0.81 | 68 % HC | 94 % HC |
| Lys-Lys-Pro-Pro-Ile-HC (KKPPI-hydrocodone) | 80 % HC | 76 % HC | 1.18 | 0.81 | 68 % HC | 94 % HC |
| Pro-Ile-Ile-HC | 104 % HC | 99 % HC | 1.21 | 0.97 | 86 % HC | 102 % HC |
| Pro-Leu-Ile-HC | 141 % HC | 172 % HC | 1.62 | 1.70 | 87 % HC | 101 % HC |
| Pro-Pro-Leu-HC | 94 % HC | 108 % HC | 2.04 | 2.25 | 46 % HC | 48 % HC |
| Tyr-Tyr-Ile-HC | 145 % HC | 234 % HC | 7.25 | 6.88 | 20 % HC | 34 % HC |
| Tyr-Tyr-Phe-Phe-Ile-HC | 113 % HC | 63 % HC | 4.35 | 1.85 | 26 % HC | 34 % HC |
| Tyr-Tyr-Pro-Pro-Ile-HC (YYPPI-hydrocodone) | 218 % HC | 213 % HC | – | – | 10 % HC | 10 % HC |
